Measured values reported in the supplement of paper PMC10724198.
± gives the standard deviation of the averaged measurements.

Tested on: Saccharomyces cerevisiae
Experiment: protein stability index of tFT-peptide fusion (C-terminal peptide) (PSI (0-1 scale)); higher = more stable (slower turnover)
Conditions: genetic background: wild type; temperature: 30 C
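Further: PSI is a weighted mean of sequencing reads over stability bins, variants kept only with over 10 reads, mCherry proximal and sfGFP distal, peptide attached via GGGS linker.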

Row | Sequence | protein stability index
1 | PALSVPPLLPPP | 0.604 ± 0.0071
2 | PAPAPPSHFQER | 0.717 ± 0.043
3 | PAPAVPPQTTPM | 0.6693 ± 0.001
4 | PAPFPAPPTHGP | 0.7165 ± 0.0061
5 | PAPHPPIPHQPP | 0.532 ± 0.023
6 | PAPHPRLTPIFL | 0.749 ± 0.11
7 | PAPPALPFHCPR | 0.654 ± 0.075
8 | PAPPLLPPPSPP | 0.63 ± 0.027
9 | PAPPPHSAPPLP | 0.739 ± 0.024
10 | PAPPPPPPALLP | 0.677 ± 0.067
11 | PAPPPSPPPRLA | 0.67 ± 0.075
12 | PAPTPAPNPNPH | 0.74 ± 0.11
13 | PARGPTPHIVPR | 0.667 ± 0.053
14 | PARSAGPLNARS | 0.758 ± 0.013
15 | PASGHLPPPLSP | 0.641 ± 0.064
16 | PASLPPRAPPPL | 0.664 ± 0.019
17 | PASRIGGALPGG | 0.604 ± 0.03
18 | PASYLSSPLRPP | 0.667 ± 0.046
19 | PATKQFLLRGGR | 0.713 ± 0.0079
20 | PAVLLGPCARVP | 0.699 ± 0.04
21 | PAVPPGGDPTCP | 0.689 ± 0.0085
22 | PCARLAGSPLPT | 0.688 ± 0.021
23 | PCCYAGLHFFLG | 0.626 ± 0.068
24 | PCLLANFFFFPA | 0.653 ± 0.09
25 | PCLSLSFPPLPH | 0.736 ± 0.034
26 | PCLSRPSTPPSS | 0.674 ± 0.036

Row | Sequence | protein stability index
27 | PCPETPLLTRAA | 0.651 ± 0.0094
28 | PCPFSSPPPLTH | 0.763 ± 0.053
29 | PCSPRLPPFPSP | 0.683 ± 0.017
30 | PCTRIPPLDSPL | 0.718 ± 0.058
31 | PDPHTLTPTGHP | 0.71 ± 0.026
32 | PDSAGAALSLSS | 0.695 ± 0.027
33 | PDSIVACGPVGR | 0.702 ± 0.043
34 | PDTVRALMRGYK | 0.721 ± 0.016
35 | PEGPGAGRGEHN | 0.686 ± 0.044
36 | PEHGPWLFKGFF | 0.653 ± 0.025
37 | PEILSLDPLPSL | 0.662 ± 0.018
38 | PESGPVRLRTPP | 0.624 ± 0.029
39 | PESPNCRRTRAL | 0.661 ± 0.031
40 | PFAHPPRLPLFP | 0.742 ± 0.096
41 | PFAHSATFLSLG | 0.774 ± 0.052
42 | PFAPPPRPGPFP | 0.697 ± 0.085
43 | PFARPPPSPSPR | 0.707 ± 0.012
44 | PFCLPRPVRGVL | 0.728 ± 0.1
45 | PFCTRRSVRYRS | 0.719 ± 0.049
46 | PFCVALVDVGFW | 0.564 ± 0.029
47 | PFFFLPPSRPRP | 0.671 ± 0.023
48 | PFGPRLTQRSRP | 0.697 ± 0.039
49 | PFHSPLMPAHSH | 0.764 ± 0.049
50 | PFIPRFFSPCPL | 0.673 ± 0.018
51 | PFLGHCPPTPPP | 0.732 ± 0.044
52 | PFLLDSMRALGL | 0.737 ± 0.082

Row | Sequence | protein stability index
53 | PFLLFVSSTCPL | 0.605 ± 0.024
54 | PFPPHSPPSAPS | 0.697 ± 0.0093
55 | PFPQVPFPRLAY | 0.681 ± 0.066
56 | PFPSYLSPLGPS | 0.734 ± 0.037
57 | PFRFSPFPLPLP | 0.695 ± 0.023
58 | PFSIVRRSSFAP | 0.659 ± 0.082
59 | PFSTVDLATAYP | 0.712 ± 0.017
60 | PFVFRPGPVPRV | 0.643 ± 0.1
61 | PFWGKWVPSSYL | 0.7126 ± 0.0053
62 | PFYLPPSTPPLL | 0.739 ± 0.0076
63 | PGCLMGSRGFSN | 0.785 ± 0.18
64 | PGDFSWAQCLFP | 0.752 ± 0.048
65 | PGDSALVLVTPQ | 0.703 ± 0.069
66 | PGFEPHLKLCAA | 0.654 ± 0.042
67 | PGGRTVLCGTVT | 0.651 ± 0.0044
68 | PGGSVYKPLATA | 0.644 ± 0.071
69 | PGLAGGASQEGR | 0.58 ± 0.085
70 | PGLLPTPSSPVP | 0.821 ± 0.032
71 | PGLRRHPPPPPP | 0.739 ± 0.071
72 | PGMTILETTIMD | 0.691 ± 0.015
73 | PGPSVRSWHPMD | 0.69 ± 0.082
74 | PGRGRQGSGIGM | 0.671 ± 0.062
75 | PGRSRGGPPERR | 0.6386 ± 0.0035
76 | PGTEVSDTLEVL | 0.6894 ± 0.0045
77 | PGTRNATPRRQP | 0.707 ± 0.04
78 | PGVIFRLPSCFV | 0.652 ± 0.061

Row | Sequence | protein stability index
79 | PHAHTAPPPVPP | 0.601 ± 0.017
80 | PHAPTAGPFPLP | 0.783 ± 0.021
81 | PHILMSFGSPLS | 0.729 ± 0.018
82 | PHLLRRPPTQRH | 0.633 ± 0.049
83 | PHLSPPGLPTTP | 0.685 ± 0.055
84 | PHNSARSLPLHF | 0.717 ± 0.052
85 | PHPCPTPPPLAP | 0.644 ± 0.043
86 | PHPLPLPPPVAP | 0.711 ± 0.031
87 | PHPNHRGPKGAN | 0.686 ± 0.032
88 | PHPPCRPYPAGS | 0.701 ± 0.031
89 | PHPPPLTQTPHD | 0.704 ± 0.014
90 | PHPPPPPPALTP | 0.704 ± 0.037
91 | PHPSPSSPPLLP | 0.657 ± 0.043
92 | PHPVPPRLPFPS | 0.747 ± 0.038
93 | PHQPRDGSFHGT | 0.653 ± 0.011
94 | PHRLPPLPNPLH | 0.693 ± 0.082
95 | PHRSLHTPTLCS | 0.686 ± 0.16
96 | PHSLLPSSAPRN | 0.696 ± 0.024
97 | PHTHHLPPPNCP | 0.679 ± 0.04
98 | PHYLPHAPHGAL | 0.704 ± 0.037
99 | PIGAFLSFWGQW | 0.828 ± 0.087
100 | PIPPESLHPDHN | 0.83 ± 0.038
101 | PISCVLGFAFPS | 0.708 ± 0.1
102 | PISKLCLTSYEY | 0.697 ± 0.021
103 | PITLRRRSRPPT | 0.692 ± 0.052
104 | PKEQTHKKQHNI | 0.56 ± 0.039

Row | Sequence | protein stability index
105 | PKNPRSTNGQLS | 0.67 ± 0.055
106 | PKPDFPGRHLSR | 0.654 ± 0.093
107 | PKSFLRRLRGWA | 0.701 ± 0.07
108 | PLAHYRPLPPRL | 0.787 ± 0.063
109 | PLAMRVALFSPP | 0.651 ± 0.0089
110 | PLAPSPPLPAFC | 0.693 ± 0.02
111 | PLAPSTPPNLSN | 0.643 ± 0.073
112 | PLASPYRLCPVP | 0.624 ± 0.044
113 | PLCPPPLPTPPP | 0.5849 ± 0.0028
114 | PLCPPPPVASFV | 0.64 ± 0.013
115 | PLDLPPLPLPPP | 0.763 ± 0.15
116 | PLFRHAPPSTLH | 0.739 ± 0.014
117 | PLFSLRPSIPFS | 0.72 ± 0.033
118 | PLGCFQQDVYEK | 0.733 ± 0.089
119 | PLHLPPFRPSPR | 0.676 ± 0.12
120 | PLHPPLSGPLPP | 0.723 ± 0.021
121 | PLHPPSLPPSRS | 0.65 ± 0.059
122 | PLLAPVPLTLTP | 0.722 ± 0.022
123 | PLLGPFTPSSLL | 0.737 ± 0.0088
124 | PLLHSARSSPFR | 0.699 ± 0.049
125 | PLLLLFLSLFRR | 0.63 ± 0.023
126 | PLLPLRSPPPLV | 0.637 ± 0.046
127 | PLLPPLPVSPLP | 0.704 ± 0.038
128 | PLLPRLNIPREF | 0.658 ± 0.056
129 | PLLSCLFLLFFL | 0.526 ± 0.0065
130 | PLLSLGCFPFCL | 0.724 ± 0.082

Row | Sequence | protein stability index
131 | PLLVLPGPLLTP | 0.668 ± 0.097
132 | PLPFSPPFPPSS | 0.732 ± 0.055
133 | PLPFWPPPPRRP | 0.674 ± 0.066
134 | PLPIGLRHVKSE | 0.696 ± 0.018
135 | PLPIPPRRPNSP | 0.65 ± 0.091
136 | PLPLLPTNPSPP | 0.636 ± 0.0096
137 | PLPLPAPPPPSP | 0.663 ± 0.01
138 | PLPPFPPSPPFT | 0.684 ± 0.036
139 | PLPPLPPPPPPP | 0.639 ± 0.051
140 | PLPPPAIPRLCA | 0.636 ± 0.029
141 | PLPPPLLPRTRL | 0.694 ± 0.11
142 | PLPPPPLAPPPP | 0.687 ± 0.014
143 | PLPPPPPARLVP | 0.649 ± 0.048
144 | PLPPPPPPPHSP | 0.738 ± 0.05
145 | PLPPPPPPPPRL | 0.678 ± 0.0073
146 | PLPPPPPPPRSP | 0.718 ± 0.077
147 | PLPPPPPPPSTP | 0.784 ± 0.0098
148 | PLPPPPRLRCSS | 0.649 ± 0.069
149 | PLPPPPTPPSLS | 0.716 ± 0.046
150 | PLPPPRFPPPRL | 0.68 ± 0.12
151 | PLPPPRPPPSPP | 0.603 ± 0.071
152 | PLPPPRSSPVSS | 0.658 ± 0.04
153 | PLPPRLPPPPPS | 0.72 ± 0.048
154 | PLPPSRLSPSPP | 0.7 ± 0.0036
155 | PLPPTPSLDPSS | 0.6992 ± 0.0033
156 | PLPPVVSFALSR | 0.661 ± 0.061

Row | Sequence | protein stability index
157 | PLPRPPPPANSP | 0.714 ± 0.063
158 | PLPRSPLHPSVP | 0.74 ± 0.03
159 | PLPSLPPSLAPW | 0.692 ± 0.078
160 | PLPSPASPSPPP | 0.67 ± 0.12
161 | PLPSPLLPRSVL | 0.705 ± 0.045
162 | PLPSPSLLLHCP | 0.592 ± 0.0013
163 | PLPTPHPHKPYQ | 0.771 ± 0.025
164 | PLPVRPGQHRIL | 0.6918 ± 0.0024
165 | PLRKGVHTHNNK | 0.632 ± 0.053
166 | PLRLLSTPSPLS | 0.755 ± 0.049
167 | PLRLPVPLPSPP | 0.6571 ± 0.0062
168 | PLRPGILLNKLP | 0.646 ± 0.046
169 | PLRPPPPPLAPP | 0.697 ± 0.035
170 | PLRPPPRPRQTH | 0.671 ± 0.056
171 | PLRPPPSPLSPR | 0.76 ± 0.055
172 | PLRPSVSALPPF | 0.683 ± 0.018
173 | PLRQRCIYDVPI | 0.7688 ± 0.0039
174 | PLRSLRFYTTLS | 0.649 ± 0.018
175 | PLRVATTLGYPL | 0.649 ± 0.081
176 | PLRVDLTHQQWS | 0.574 ± 0.11
177 | PLRYPQLTLPPP | 0.6381 ± 0.0037
178 | PLSDRGGRFPML | 0.7 ± 0.053
179 | PLSLIAFAISPC | 0.637 ± 0.015
180 | PLSPFLPPPVPL | 0.703 ± 0.13
181 | PLSPFLRFLSSP | 0.605 ± 0.072
182 | PLSPPLPPAIPS | 0.698 ± 0.063

Row | Sequence | protein stability index
183 | PLSPPPRPPPSP | 0.654 ± 0.066
184 | PLSPPPRRPPSP | 0.655 ± 0.022
185 | PLSSILSPSSPA | 0.729 ± 0.052
186 | PLTFRYQSHSAH | 0.702 ± 0.11
187 | PLTNPPRSRKSS | 0.783 ± 0.12
188 | PLTTTPPTRHTP | 0.6978 ± 0.004
189 | PLWHCFRFLSGS | 0.607 ± 0.014
190 | PMPPPRRPTALC | 0.716 ± 0.038
191 | PNPPPPPPPSSP | 0.742 ± 0.058
192 | PNRPPLQFFPPP | 0.697 ± 0.05
193 | PNSTIVATKGVT | 0.648 ± 0.076
194 | PPAASSFRLSSC | 0.751 ± 0.1
195 | PPALPPTGHPPF | 0.709 ± 0.013
196 | PPAPFAICRTRS | 0.654 ± 0.018
197 | PPAPPAPPPSVG | 0.708 ± 0.03
198 | PPAPPPPPPSPP | 0.659 ± 0.029
199 | PPAPPPPSTPHP | 0.672 ± 0.13
200 | PPAPPPVSPPRP | 0.7075 ± 0.0027
201 | PPAPPSQPINAT | 0.709 ± 0.053
202 | PPAPSPPLPSLA | 0.694 ± 0.037
